These sequences were tested on AncSZ (assay: phosphorylation enrichment, bacterial display (enrichment ratio); higher = better substrate or ligand; peptides without Tyr show the background).
KKFVPYFDLFM [IPO5_Y530_E525K_YF] was tested, and the phosphorylation enrichment was 1.29. PDNKPYIFKVF [PIK3AP1_Y553_E551K] gave a phosphorylation enrichment of 1.37. Work on LAVVDYIRRQK [ATM_Y1915_M1916I] yielded a phosphorylation enrichment of 1.06. LDAFIYDAALL [GRIN2A_Y730_V734L] gave a phosphorylation enrichment of 1.44. TFWKKYCTFWK [CCDC70_Y125_R126C] was tested, and the phosphorylation enrichment was 0.966. With FITVGYVDDTQ [HLA-B_Y51_S48T] the phosphorylation enrichment was 0.999. For KHGGNYVPAPK [OSCP1_Y237], the phosphorylation enrichment was 0.7. For QNVADYMRYLM [RPL5_Y207], the phosphorylation enrichment was 1.49. NFATLYLKIFH [PDE6B_Y219_YF] showed a phosphorylation enrichment of 1.21. Work on LKLWDYSRGRC [WDR5B_Y239] yielded a phosphorylation enrichment of 0.966. For HHTNEYEFDEL [TGM1_Y134_D132N_YF], the phosphorylation enrichment was 1.56. YAANYYKLLGN [ROR2_Y646_D644N] showed a phosphorylation enrichment of 0.566. Sequence TIQIMFGCDVG [HLA-A_Y123_Y123F] has a phosphorylation enrichment of 1.28. Sequence EPFKVYRIVPE [IRF8_Y110_YF] has a phosphorylation enrichment of 0.572. PLQHVYKIGGI [EEF1A2_Y254_D252H] was tested, and the phosphorylation enrichment was 0.964. Sequence VPLATYMQIFK [RPL21_Y30_R32Q_YF] has a phosphorylation enrichment of 0.745. GCKKRYDKDKP [THAP1_Y14_N12K] showed a phosphorylation enrichment of 0.833. With RAFSWYQHQRA [NDST1_Y714_YF] the phosphorylation enrichment was 1.54. Sequence FLRTGYSVPFG [TGM1_Y370_YF] has a phosphorylation enrichment of 0.875. With NMHSTYAKLAA [SEC22B_Y193] the phosphorylation enrichment was 0.382. Sequence ISHVAYCVLGK [TRRAP_Y892_R893C] has a phosphorylation enrichment of 1.3. Sequence DFTEAYNSKIK [CLK1_Y305_P307S_YF] has a phosphorylation enrichment of 0.899. TYEYKYPEGSS [TGM4_Y440] was tested, and the phosphorylation enrichment was 1.32. For SGPRRYTVAAL [TTR_Y125_I127V], the phosphorylation enrichment was 0.51. In the case of TRGLEYIVPLM [CLCN4_Y548_G544R], the phosphorylation enrichment was 1.18. CPYNLYAAQLS [HGD_Y40_E42A] showed a phosphorylation enrichment of 1.28. TRDVNYGWVIR [MT-CYB_Y75_I78V] showed a phosphorylation enrichment of 1.16. In the case of QEGPEYWDLET [HLA-A_Y83_Q86L], the phosphorylation enrichment was 2.76. For RRSKMYLKTRS [LPL_Y329_S325R], the phosphorylation enrichment was 0.728.

What follows are sequences tested against EPHB1 (UniProt P54762) in the same assay as above.
EPHB1, sequence (P54762 whole entry, looked up): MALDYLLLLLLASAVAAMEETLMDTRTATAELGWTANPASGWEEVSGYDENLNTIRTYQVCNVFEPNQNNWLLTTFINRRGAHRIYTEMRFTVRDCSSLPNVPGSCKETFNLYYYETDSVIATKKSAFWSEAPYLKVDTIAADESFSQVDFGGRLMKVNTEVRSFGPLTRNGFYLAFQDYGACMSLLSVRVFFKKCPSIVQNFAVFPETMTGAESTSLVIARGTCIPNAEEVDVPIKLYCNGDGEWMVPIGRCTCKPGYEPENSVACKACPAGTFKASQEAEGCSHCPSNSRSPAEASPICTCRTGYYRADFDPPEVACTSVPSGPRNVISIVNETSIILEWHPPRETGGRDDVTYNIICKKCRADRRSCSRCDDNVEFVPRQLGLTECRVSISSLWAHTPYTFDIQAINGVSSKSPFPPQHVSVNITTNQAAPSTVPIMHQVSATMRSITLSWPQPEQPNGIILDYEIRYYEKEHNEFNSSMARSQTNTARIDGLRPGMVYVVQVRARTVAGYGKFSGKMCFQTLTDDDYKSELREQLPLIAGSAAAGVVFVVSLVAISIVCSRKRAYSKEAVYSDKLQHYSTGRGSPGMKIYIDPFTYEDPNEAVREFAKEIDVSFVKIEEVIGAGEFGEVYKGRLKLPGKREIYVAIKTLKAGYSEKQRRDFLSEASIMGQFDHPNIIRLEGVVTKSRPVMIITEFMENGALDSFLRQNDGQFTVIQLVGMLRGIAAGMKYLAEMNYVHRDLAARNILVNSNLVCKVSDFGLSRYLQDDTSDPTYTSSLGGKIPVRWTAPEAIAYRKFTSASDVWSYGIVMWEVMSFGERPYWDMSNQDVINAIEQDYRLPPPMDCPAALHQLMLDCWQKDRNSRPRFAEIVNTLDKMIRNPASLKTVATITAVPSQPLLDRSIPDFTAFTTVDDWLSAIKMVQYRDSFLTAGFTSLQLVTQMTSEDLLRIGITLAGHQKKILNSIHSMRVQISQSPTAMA
With KKFVPYFDLFM [IPO5_Y530_E525K_YF] the phosphorylation enrichment was 0.722. PDNKPYIFKVF [PIK3AP1_Y553_E551K] was tested, and the phosphorylation enrichment was 0.752. With LAVVDYIRRQK [ATM_Y1915_M1916I] the phosphorylation enrichment was 0.918. With LDAFIYDAALL [GRIN2A_Y730_V734L] the phosphorylation enrichment was 2.23. In the case of TFWKKYCTFWK [CCDC70_Y125_R126C], the phosphorylation enrichment was 0.381. FITVGYVDDTQ [HLA-B_Y51_S48T] gave a phosphorylation enrichment of 0.681. With KHGGNYVPAPK [OSCP1_Y237] the phosphorylation enrichment was 0.407. QNVADYMRYLM [RPL5_Y207] showed a phosphorylation enrichment of 1.98. In the case of NFATLYLKIFH [PDE6B_Y219_YF], the phosphorylation enrichment was 0.604. For LKLWDYSRGRC [WDR5B_Y239], the phosphorylation enrichment was 0.73. HHTNEYEFDEL [TGM1_Y134_D132N_YF] showed a phosphorylation enrichment of 0.691. With YAANYYKLLGN [ROR2_Y646_D644N] the phosphorylation enrichment was 0.566. TIQIMFGCDVG [HLA-A_Y123_Y123F] was tested, and the phosphorylation enrichment was 0.905. For EPFKVYRIVPE [IRF8_Y110_YF], the phosphorylation enrichment was 0.428. For PLQHVYKIGGI [EEF1A2_Y254_D252H], the phosphorylation enrichment was 0.73. In the case of VPLATYMQIFK [RPL21_Y30_R32Q_YF], the phosphorylation enrichment was 1.83. Sequence GCKKRYDKDKP [THAP1_Y14_N12K] has a phosphorylation enrichment of 0.449. With RAFSWYQHQRA [NDST1_Y714_YF] the phosphorylation enrichment was 0.74. Sequence FLRTGYSVPFG [TGM1_Y370_YF] has a phosphorylation enrichment of 0.523. NMHSTYAKLAA [SEC22B_Y193] gave a phosphorylation enrichment of 0.437. ISHVAYCVLGK [TRRAP_Y892_R893C] showed a phosphorylation enrichment of 0.731. Sequence DFTEAYNSKIK [CLK1_Y305_P307S_YF] has a phosphorylation enrichment of 0.721. With TYEYKYPEGSS [TGM4_Y440] the phosphorylation enrichment was 0.526. Sequence SGPRRYTVAAL [TTR_Y125_I127V] has a phosphorylation enrichment of 0.409. Sequence TRGLEYIVPLM [CLCN4_Y548_G544R] has a phosphorylation enrichment of 0.804. CPYNLYAAQLS [HGD_Y40_E42A] was tested, and the phosphorylation enrichment was 4.48. In the case of TRDVNYGWVIR [MT-CYB_Y75_I78V], the phosphorylation enrichment was 0.947. QEGPEYWDLET [HLA-A_Y83_Q86L] gave a phosphorylation enrichment of 1.59. In the case of RRSKMYLKTRS [LPL_Y329_S325R], the phosphorylation enrichment was 0.448.

Each sequence was assayed against EPHB2 (UniProt P29323) in the same assay as above.
EPHB2, sequence (P29323 whole entry, looked up): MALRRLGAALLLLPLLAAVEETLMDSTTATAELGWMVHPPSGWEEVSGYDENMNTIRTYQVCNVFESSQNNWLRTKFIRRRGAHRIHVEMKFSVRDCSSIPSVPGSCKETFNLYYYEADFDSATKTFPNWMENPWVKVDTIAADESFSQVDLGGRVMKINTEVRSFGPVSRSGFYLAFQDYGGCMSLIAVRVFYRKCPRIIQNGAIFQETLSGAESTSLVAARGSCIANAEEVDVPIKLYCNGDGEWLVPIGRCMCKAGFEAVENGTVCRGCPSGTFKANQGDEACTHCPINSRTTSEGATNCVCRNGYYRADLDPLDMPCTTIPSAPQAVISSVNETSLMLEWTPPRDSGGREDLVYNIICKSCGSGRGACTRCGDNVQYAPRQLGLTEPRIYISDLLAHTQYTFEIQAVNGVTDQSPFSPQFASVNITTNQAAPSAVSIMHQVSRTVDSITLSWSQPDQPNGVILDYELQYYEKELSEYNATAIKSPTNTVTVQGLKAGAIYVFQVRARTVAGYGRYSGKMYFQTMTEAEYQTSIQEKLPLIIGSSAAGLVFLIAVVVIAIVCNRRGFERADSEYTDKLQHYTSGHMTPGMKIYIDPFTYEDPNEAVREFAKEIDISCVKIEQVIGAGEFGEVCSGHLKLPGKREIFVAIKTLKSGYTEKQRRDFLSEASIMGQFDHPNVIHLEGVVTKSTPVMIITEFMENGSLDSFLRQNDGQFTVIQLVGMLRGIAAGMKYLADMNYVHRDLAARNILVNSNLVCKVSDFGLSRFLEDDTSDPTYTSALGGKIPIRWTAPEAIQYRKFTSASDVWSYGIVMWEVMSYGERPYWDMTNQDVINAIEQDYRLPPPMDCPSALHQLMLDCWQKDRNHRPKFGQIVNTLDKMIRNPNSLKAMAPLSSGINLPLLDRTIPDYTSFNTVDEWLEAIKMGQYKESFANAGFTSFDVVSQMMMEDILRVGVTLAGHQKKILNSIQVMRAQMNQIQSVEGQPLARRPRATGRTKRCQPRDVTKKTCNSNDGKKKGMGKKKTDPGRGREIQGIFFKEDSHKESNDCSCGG
With KKFVPYFDLFM [IPO5_Y530_E525K_YF] the phosphorylation enrichment was 0.707. PDNKPYIFKVF [PIK3AP1_Y553_E551K] showed a phosphorylation enrichment of 0.919. In the case of LAVVDYIRRQK [ATM_Y1915_M1916I], the phosphorylation enrichment was 1.42. For LDAFIYDAALL [GRIN2A_Y730_V734L], the phosphorylation enrichment was 2.32. Work on TFWKKYCTFWK [CCDC70_Y125_R126C] yielded a phosphorylation enrichment of 0.425. Sequence FITVGYVDDTQ [HLA-B_Y51_S48T] has a phosphorylation enrichment of 0.611. Work on KHGGNYVPAPK [OSCP1_Y237] yielded a phosphorylation enrichment of 0.304. QNVADYMRYLM [RPL5_Y207] was tested, and the phosphorylation enrichment was 1.16. NFATLYLKIFH [PDE6B_Y219_YF] showed a phosphorylation enrichment of 0.599. Work on LKLWDYSRGRC [WDR5B_Y239] yielded a phosphorylation enrichment of 1.01. Work on HHTNEYEFDEL [TGM1_Y134_D132N_YF] yielded a phosphorylation enrichment of 1.01. Sequence YAANYYKLLGN [ROR2_Y646_D644N] has a phosphorylation enrichment of 0.546. In the case of TIQIMFGCDVG [HLA-A_Y123_Y123F], the phosphorylation enrichment was 0.801. With EPFKVYRIVPE [IRF8_Y110_YF] the phosphorylation enrichment was 0.454. With PLQHVYKIGGI [EEF1A2_Y254_D252H] the phosphorylation enrichment was 0.71. Sequence VPLATYMQIFK [RPL21_Y30_R32Q_YF] has a phosphorylation enrichment of 0.648. Sequence GCKKRYDKDKP [THAP1_Y14_N12K] has a phosphorylation enrichment of 0.534. Sequence RAFSWYQHQRA [NDST1_Y714_YF] has a phosphorylation enrichment of 0.855. In the case of FLRTGYSVPFG [TGM1_Y370_YF], the phosphorylation enrichment was 0.515. In the case of NMHSTYAKLAA [SEC22B_Y193], the phosphorylation enrichment was 0.451. ISHVAYCVLGK [TRRAP_Y892_R893C] showed a phosphorylation enrichment of 0.79. DFTEAYNSKIK [CLK1_Y305_P307S_YF] was tested, and the phosphorylation enrichment was 0.622. TYEYKYPEGSS [TGM4_Y440] showed a phosphorylation enrichment of 0.492. SGPRRYTVAAL [TTR_Y125_I127V] showed a phosphorylation enrichment of 0.42. TRGLEYIVPLM [CLCN4_Y548_G544R] showed a phosphorylation enrichment of 0.721. CPYNLYAAQLS [HGD_Y40_E42A] gave a phosphorylation enrichment of 4.3. For TRDVNYGWVIR [MT-CYB_Y75_I78V], the phosphorylation enrichment was 1.27. With QEGPEYWDLET [HLA-A_Y83_Q86L] the phosphorylation enrichment was 1.18. RRSKMYLKTRS [LPL_Y329_S325R] was tested, and the phosphorylation enrichment was 0.845.

Each sequence was assayed against FGFR1 (UniProt P11362) in the same assay as above.
FGFR1, sequence (P11362 whole entry, looked up): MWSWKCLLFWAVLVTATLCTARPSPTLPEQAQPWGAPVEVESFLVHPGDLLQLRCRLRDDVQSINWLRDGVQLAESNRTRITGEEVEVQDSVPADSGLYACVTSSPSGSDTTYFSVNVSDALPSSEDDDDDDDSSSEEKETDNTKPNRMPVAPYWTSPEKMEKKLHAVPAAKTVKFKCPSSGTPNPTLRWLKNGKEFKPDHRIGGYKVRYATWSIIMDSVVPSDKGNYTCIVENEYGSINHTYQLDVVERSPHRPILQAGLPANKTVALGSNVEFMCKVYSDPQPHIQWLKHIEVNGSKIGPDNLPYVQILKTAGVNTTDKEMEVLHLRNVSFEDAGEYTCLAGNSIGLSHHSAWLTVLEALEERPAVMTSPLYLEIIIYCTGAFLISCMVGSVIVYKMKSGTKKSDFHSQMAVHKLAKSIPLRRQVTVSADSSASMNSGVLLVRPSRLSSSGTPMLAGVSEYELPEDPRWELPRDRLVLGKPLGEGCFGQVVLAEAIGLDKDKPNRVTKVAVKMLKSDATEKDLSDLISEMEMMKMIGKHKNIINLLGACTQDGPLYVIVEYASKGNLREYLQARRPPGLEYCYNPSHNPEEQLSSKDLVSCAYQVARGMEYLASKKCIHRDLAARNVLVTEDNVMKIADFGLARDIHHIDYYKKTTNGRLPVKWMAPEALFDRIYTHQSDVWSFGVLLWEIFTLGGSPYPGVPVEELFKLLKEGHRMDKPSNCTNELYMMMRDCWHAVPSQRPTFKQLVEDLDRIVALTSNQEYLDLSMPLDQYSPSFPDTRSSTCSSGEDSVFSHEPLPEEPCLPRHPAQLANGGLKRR
For KKFVPYFDLFM [IPO5_Y530_E525K_YF], the phosphorylation enrichment was 0.79. Sequence PDNKPYIFKVF [PIK3AP1_Y553_E551K] has a phosphorylation enrichment of 0.681. LAVVDYIRRQK [ATM_Y1915_M1916I] was tested, and the phosphorylation enrichment was 0.791. LDAFIYDAALL [GRIN2A_Y730_V734L] gave a phosphorylation enrichment of 0.55. TFWKKYCTFWK [CCDC70_Y125_R126C] gave a phosphorylation enrichment of 0.438. In the case of FITVGYVDDTQ [HLA-B_Y51_S48T], the phosphorylation enrichment was 0.658. With KHGGNYVPAPK [OSCP1_Y237] the phosphorylation enrichment was 0.512. Work on QNVADYMRYLM [RPL5_Y207] yielded a phosphorylation enrichment of 1.07. NFATLYLKIFH [PDE6B_Y219_YF] was tested, and the phosphorylation enrichment was 0.669. Work on LKLWDYSRGRC [WDR5B_Y239] yielded a phosphorylation enrichment of 0.597. HHTNEYEFDEL [TGM1_Y134_D132N_YF] gave a phosphorylation enrichment of 0.702. YAANYYKLLGN [ROR2_Y646_D644N] gave a phosphorylation enrichment of 1.76. With TIQIMFGCDVG [HLA-A_Y123_Y123F] the phosphorylation enrichment was 0.645. With EPFKVYRIVPE [IRF8_Y110_YF] the phosphorylation enrichment was 0.468. PLQHVYKIGGI [EEF1A2_Y254_D252H] gave a phosphorylation enrichment of 0.649. VPLATYMQIFK [RPL21_Y30_R32Q_YF] gave a phosphorylation enrichment of 0.471. GCKKRYDKDKP [THAP1_Y14_N12K] gave a phosphorylation enrichment of 0.506. RAFSWYQHQRA [NDST1_Y714_YF] showed a phosphorylation enrichment of 0.763. FLRTGYSVPFG [TGM1_Y370_YF] gave a phosphorylation enrichment of 0.504. NMHSTYAKLAA [SEC22B_Y193] was tested, and the phosphorylation enrichment was 0.385. Sequence ISHVAYCVLGK [TRRAP_Y892_R893C] has a phosphorylation enrichment of 0.73. Work on DFTEAYNSKIK [CLK1_Y305_P307S_YF] yielded a phosphorylation enrichment of 0.592. With TYEYKYPEGSS [TGM4_Y440] the phosphorylation enrichment was 0.517. With SGPRRYTVAAL [TTR_Y125_I127V] the phosphorylation enrichment was 0.401. For TRGLEYIVPLM [CLCN4_Y548_G544R], the phosphorylation enrichment was 1.41. CPYNLYAAQLS [HGD_Y40_E42A] showed a phosphorylation enrichment of 0.815. In the case of TRDVNYGWVIR [MT-CYB_Y75_I78V], the phosphorylation enrichment was 0.612. Sequence QEGPEYWDLET [HLA-A_Y83_Q86L] has a phosphorylation enrichment of 3.97. RRSKMYLKTRS [LPL_Y329_S325R] showed a phosphorylation enrichment of 0.599.
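Also: 11-residue human phosphosite peptides and single-mutation variants displayed on the E. coli surface, counted by deep sequencing, each peptide's frequency after selection divided by its frequency in the unselected input library; frequency after pTyr selection over input frequency; kinase dosed for 20-30% of maximal phosphorylation in three min.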
